Measured values: patent publication US20230380451A1, “MEANS AND METHODS TO DETOXIFY MYCOTOXINS” (priority 2020, published 2023)

B1: ADH-Lk: artificial amino acid sequence, variant of a wild type alcohol dehydrogenase (protein)
chain: MTDRLKGKVAIVTGGTHGIGLAIATKFVTEGAKVVITGRRADVGEKAAKSIGGTDVIRFVQHDVSDEAGWGKLFDTTEETFGPVTTLVNNAGIGYRKSVEDTTTEEWRKLLSVNLDGVFFGTRLGIQRMKCKGLGASIINMSSILGQVGDPATGAYSASKGAVRIMSKSAALLCALKDYDVRVNTVHPGPIKTPLMDDMPGAEEMMSQRTKTPMGHIGEPNDIAWVCVYLASDESKFATGAEFVVDGGYTAQ
modifications: ADH-Lk

Tests used:
[1] = system: translation of firefly luciferase; format: biochemical
Description: To determine whether or not the conversion of DON into epi-THS through Akr I-III and the conversion of DON into THS through ADH-Lk, as described herein, leads to a decrease in toxicity, two assays were performed. The in vitro TNT® Quick Coupled Transcription/Translation System (Promega) was used to measure how well the metabolites inhibit protein synthesis and the CeIITox™ Green Cytotoxicity Assay (Promega; […].
For the in vitro transcription/translation assay, 40 μl of the TNT T7 quick master mix were mixed with 2 μl firefly luciferase encoding DNA and with 4 μl metabolites to obtain final concentrations from 0.01 μM-150 μM in the reaction. Reactions lacking metabolites were the reference for maximum luminescence output. Reactions were incubated at 30° C. for 90 min to allow for transcription of luciferase gene and subsequent translation. In an opaque (white) 96-well plate (Greiner Bio One) 100 μl Luciferase reagent where mixed with 4 μl of the reactions and immediately placed into a Synergy HT plate reader (Biotek) to read luminescence with a 2 sec and a 10 sec measurement delay. […].

[2] = DON transformation assay with ADH-Lk; format: biochemical; conditions: for DON / THS [peak area]: 30° C.
Description: . All components of the reaction except of isopropanol and NADP+ were mixed on ice and a 0 minutes sample was removed (mix sample 1:1 (v/v) with 100% methanol to stop any reaction). Immediately thereafter, reaction mixtures were transferred to the heating block and the reaction was started by adding NADP+ and IPA. The reaction was allowed to proceed for 22 hours at 30° C. A control reaction with the same set up, but lacking the enzyme was set up in parallel. Samples were removed in regular intervals in order to monitor the progression of the reaction and immediately mixed 1:1 (v/v) with 100% methanol to stop the reaction. They were subsequently analyzed using the HPLC-MS/MS method described in below.
For HPLC-MS/MS analysis, DON and THS were separated on a 150 mm×2.1 mm Phenomenex Kinetex Biphenyl column with a particle size of 2.6 μm. The mobile phase consisted of a mixture of methanol and ultrapure water with 0.1% (v/v) acetic acid. Ions were generated using electro spray ionization (ESI) in negative ionization mode. The quantification is done using a QTrap and/or triple quadrupole mass detector. […].

Molecule	times weaker effect on luminescence output compared to DON [1]	DON ([2]; time 0 h) [µg/L]	DON ([2]; time 3.5 h) [µg/L]	THS [peak area] ([2]; time 3.5 h)	DON ([2]; time 22 h) [µg/L]	THS [peak area] ([2]; time 22 h)	production of THS from DON ([2]; presence of enzyme in the reaction)
8-amino-DON [Akr 8-amino-DON]	5-10 times	–	–	–	–	–	–
B1	–	399.9	387.1	7.88E+03	296.6	1.13E+05	leads to the production of THS from DON
